The values below come from paper PMC12557367 (2025).

Numbered stars: 1 amine (or outer) side, 2 acyl side, 3 side chain; on linkers, the order of the positions; unused ones are H or OH. Bridge positions count the residues as written; N and C are the ends. Square brackets hold non-standard residues; d marks the D form. * marks the point of attachment. (R)‑NODAGA = O=C(O)CN1CCN(CC(=O)O)CCN([C@H](CCC(=O)*)C(=O)O)CC1; DOTA = O=C(O)CN1CCN(CC(=O)O)CCN(CC(=O)*)CCN(CC(=O)O)CC1; TATA = O=C(CC[*:1])N1CN(C(=O)CC[*:2])CN(C(=O)CC[*:3])C1; Cys(et) = S-ethylcysteine, CCSC[C@H](N[*:1])C(=O)[*:2]; Ser(et) = O-ethylserine, CCOC[C@H](N[*:1])C(=O)[*:2]; 1Nal = N[C@@H](Cc1cccc2ccccc12)C(=O)O; 2Nal = N[C@@H](Cc1ccc2ccccc2c1)C(=O)O; Hyp = O=C(O)[C@@H]1C[C@@H](O)CN1; hArg = N=C(N)NCCCC[C@H](N)C(=O)O; Met(O) = CS(=O)CC[C@H](N)C(=O)O; SeMet = C[Se]CC[C@H](N)C(=O)O; Nle = CCCC[C@H](N)C(=O)O

T1: recombinant human nectin-4 (human, UniProt Q96NY8 32-349)
T1 chain: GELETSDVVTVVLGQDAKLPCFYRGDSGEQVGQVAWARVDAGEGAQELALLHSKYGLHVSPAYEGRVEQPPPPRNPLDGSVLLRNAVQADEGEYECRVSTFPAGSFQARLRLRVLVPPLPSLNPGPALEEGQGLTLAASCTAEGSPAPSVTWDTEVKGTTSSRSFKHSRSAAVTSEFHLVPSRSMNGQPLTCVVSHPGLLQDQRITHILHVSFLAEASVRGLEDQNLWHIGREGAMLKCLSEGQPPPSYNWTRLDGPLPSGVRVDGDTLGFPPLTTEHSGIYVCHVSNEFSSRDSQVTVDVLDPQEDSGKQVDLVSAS

B1: 9 (peptide)
chain: {(R)‑NODAGA}-CP[2Nal][dD]CM[hArg]DWSTP[Hyp]WC-NH2
modifications: linker 1-5-15 via TATA
B2: 10 (peptide)
chain: {(R)‑NODAGA}-CP[1Nal][dD]CMRDWSTP[Hyp]WC-NH2
modifications: linker 1-5-15 via TATA
B3: 8c (peptide)
chain: {DOTA}-CP[2Nal][dD]CMRDWSTP[Hyp]WC-NH2
modifications: linker 1-5-15 via TATA
B4: natCu-1e (peptide)
chain: {(R)‑NODAGA}-CP[1Nal][dD]CM[hArg]DWSTP[Hyp]WC-NH2
modifications: linker 1-5-15 via TATA; also: NODAGA complexed with natCu
B5: natCu-3a (peptide)
chain: {(R)‑NODAGA}-CP[1Nal][dD]C[Nle][hArg]DWSTP[Hyp]WC-NH2
modifications: linker 1-5-15 via TATA; also: NODAGA complexed with natCu
B6: natGa-1e (peptide)
chain: {(R)‑NODAGA}-CP[1Nal][dD]CM[hArg]DWSTP[Hyp]WC-NH2
modifications: linker 1-5-15 via TATA; also: NODAGA complexed with natGa
B7: 1d (BCY8126) (peptide)
chain: Ac-CP[1Nal][dD]CM[hArg]DWSTP[Hyp]WC-NH2
modifications: linker 1-5-15 via TATA
B8: 8a (peptide)
chain: {(R)‑NODAGA}-CP[2Nal][dD]CMRDWSTP[Hyp]WC-NH2
modifications: linker 1-5-15 via TATA
B9: 8d (N188) (peptide)
chain: {DOTA}-CP[2Nal][dD]CMRDWSTP[Hyp]WC-OH
modifications: linker 1-5-15 via TATA
B10: 1c (peptide)
chain: H-CP[1Nal][dD]CM[hArg]DWSTP[Hyp]WC-NH2
modifications: linker 1-5-15 via TATA
B11: 7 (peptide)
chain: {(R)‑NODAGA}-CP[1Nal][dD]C[Cys(et)][hArg]DWSTP[Hyp]WC-NH2
modifications: linker 1-5-15 via TATA
SMILES: CCSC[C@@H]1NC(=O)[C@@H]2CSCCC(=O)N3CN(CN(C3)C(=O)CCSC[C@H](NC(=O)CC[C@H](C(=O)O)N3CCN(CC(=O)O)CCN(CC(=O)O)CC3)C(=O)N3CCC[C@H]3C(=O)N[C@@H](Cc3cccc4ccccc34)C(=O)N[C@H](CC(=O)O)C(=O)N2)C(=O)CCSC[C@@H](C(N)=O)NC(=O)[C@H](Cc2c[nH]c3ccccc23)NC(=O)[C@@H]2C[C@@H](O)CN2C(=O)[C@@H]2CCCN2C(=O)[C@H]([C@@H](C)O)NC(=O)[C@H](CO)NC(=O)[C@H](Cc2c[nH]c3ccccc23)NC(=O)[C@H](CC(=O)O)NC(=O)[C@H](CCCCNC(=N)N)NC1=O
B12: 3b (peptide)
chain: Ac-CP[1Nal][dD]C[Nle][hArg]DWSTP[Hyp]WC-NH2
modifications: linker 1-5-15 via TATA
B13: 2 (peptide)
chain: {(R)‑NODAGA}-CP[1Nal][dD]C[Met(O)][hArg]DWSTP[Hyp]WC-NH2
modifications: linker 1-5-15 via TATA
B14: 3a (peptide)
chain: {(R)‑NODAGA}-CP[1Nal][dD]C[Nle][hArg]DWSTP[Hyp]WC-NH2
modifications: linker 1-5-15 via TATA
B15: 1f (peptide)
chain: {DOTA}-CP[1Nal][dD]CM[hArg]DWSTP[Hyp]WC-NH2
modifications: linker 1-5-15 via TATA
B16: 1e (peptide)
chain: {(R)‑NODAGA}-CP[1Nal][dD]CM[hArg]DWSTP[Hyp]WC-NH2
modifications: linker 1-5-15 via TATA
B17: 6 (peptide)
chain: {(R)‑NODAGA}-CP[1Nal][dD]C[Ser(et)][hArg]DWSTP[Hyp]WC-NH2
modifications: linker 1-5-15 via TATA
SMILES: CCOC[C@@H]1NC(=O)[C@@H]2CSCCC(=O)N3CN(CN(C3)C(=O)CCSC[C@H](NC(=O)CC[C@H](C(=O)O)N3CCN(CC(=O)O)CCN(CC(=O)O)CC3)C(=O)N3CCC[C@H]3C(=O)N[C@@H](Cc3cccc4ccccc34)C(=O)N[C@H](CC(=O)O)C(=O)N2)C(=O)CCSC[C@@H](C(N)=O)NC(=O)[C@H](Cc2c[nH]c3ccccc23)NC(=O)[C@@H]2C[C@@H](O)CN2C(=O)[C@@H]2CCCN2C(=O)[C@H]([C@@H](C)O)NC(=O)[C@H](CO)NC(=O)[C@H](Cc2c[nH]c3ccccc23)NC(=O)[C@H](CC(=O)O)NC(=O)[C@H](CCCCNC(=N)N)NC1=O
B18: 5 (peptide)
chain: {(R)‑NODAGA}-CP[1Nal][dD]C[SeMet][hArg]DWSTP[Hyp]WC-NH2
modifications: linker 1-5-15 via TATA

One experiment concerns the target T1, recombinant human nectin-4. Nature of the experiment: SPR.
The term Kd denotes a measure of binding affinity in units of concentration. B1: the Kd is 2.85 nM.

A further experiment deals with T1, recombinant human nectin-4. Nature of the experiment: SPR. This is another data set of the same source. On the technique in general: SPR reads the build-up and loss of mass on a sensor chip optically.
For orientation: koff means the rate constant with which the complex falls apart. Take B2: the dissociation rate constant (koff) was determined as 0.00308 s⁻¹.

As for B1, the koff worked out at 0.0361 s⁻¹.

A further experiment deals with T1, recombinant human nectin-4. Description: FP.
As usually defined, the IC50 is the point on the concentration scale where inhibition reaches its midpoint. With B3, the 50% inhibitory concentration (IC50) is 3290 nM.

In the case of B4, the half-inhibitory concentration (IC50) came to 23.7 nM.

With B5, the IC50 turned out to be 45.4 nM.

As to B2, the IC50 was found to be 32.1 nM.

B6: the IC50 was 203 nM.

On to B7, for which the half-inhibitory concentration (IC50) was determined as 34.7 nM.

Regarding B8, the half-inhibitory concentration (IC50) was 479 nM.

Consider B9, for which the IC50 turned out to be 4220 nM.

For the molecule B10, the half-maximal inhibitory concentration (IC50) came to 51.8 nM.

As for B11, the concentration for half-maximal inhibition (IC50) turned out to be 151 nM.

As to B12, the IC50 was found to be 31.5 nM.

Regarding B13, the IC50 was found to be 568 nM.

As to B14, the IC50 came to 41.6 nM.

Consider B15, for which the IC50 was 177 nM.

For B16, the IC50 came out at 35.6 nM.

Take B1: the IC50 was 270 nM.

With B17, the IC50 came out at 379 nM.

Take B18: the IC50 is 48.7 nM.
